Laboratory results: paper PMC4677475 (Journal of biomolecular screening, 2011)
Read-outs that look alike come from different tables or passages of the source.

Assays:
[1] = molecular target: T1, His-tagged human GTP cyclohydrolase 1 (human, UniProt P30793 1-250); experiment: FRET or BRET
T1 sequence (looked up): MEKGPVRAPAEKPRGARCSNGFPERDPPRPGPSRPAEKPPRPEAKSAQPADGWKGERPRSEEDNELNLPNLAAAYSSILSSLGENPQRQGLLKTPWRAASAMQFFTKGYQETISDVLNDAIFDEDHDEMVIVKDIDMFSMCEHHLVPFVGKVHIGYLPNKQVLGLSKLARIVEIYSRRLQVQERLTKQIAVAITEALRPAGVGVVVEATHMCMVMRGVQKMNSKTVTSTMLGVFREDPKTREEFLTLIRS

[2] = molecular target: T1, His-tagged human GTP cyclohydrolase 1; experiment: FRET or BRET; remark: listed apart in the source

B1: glutathione S-transferase (GST)-tagged human GTP cyclohydrolase feedback regulatory protein (natural protein)
chain: not shown
[1]
  Kd: 0.0159 µM
[2]
  Kd: 0.0521 µM
